Results taken from the supplement of paper PMC10567573.
± gives the standard deviation.

Test: protein stability index of a GFP-peptide fusion (GPS, HEK-293T) (PSI 1-6); higher = more stable
[1] = treatment: DMSO, c terminus: a fixed tail appended
[2] = treatment: MLN4924 1 uM, 8 h, c terminus: a fixed tail appended
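Also: 24-mer peptide tiles fused after GFP, lentivirally expressed, FACS-sorted into six equal bins by GFP/DsRed ratio, decoded by Illumina sequencing, PSI is the read-weighted mean bin number.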

| Sequence | protein stability index [1] | protein stability index [2] | protein stability index (treatment: DMSO, c terminus: native) | protein stability index (treatment: MLN4924 1 uM, 8 h, c terminus: native) |
| --- | --- | --- | --- | --- |
| QGGELVVAYPYDLVRSPWKTQEHT [CPXM2] | 2.58 ± 0.21 | 2.15 ± 0.25 | – | – |
| QGGEYLPKPEPPQLVLAYDYSREV [FEM1A] | 3.93 ± 0.23 | 4.12 ± 0.28 | – | – |
| QGPQGREGLAFLVSCPEGRADCAS [PWWP2B] | 3.77 ± 0.33 | 3.95 ± 0.26 | – | – |
| QHLKSKALRERWLLEGTPSSASEG [PALM] | 4.25 ± 0.13 | 4.33 ± 0.2 | – | – |
| QICTVKDIKAEPQPLSPASSSYSV [ATF6] | 4.16 ± 0.26 | 3.98 ± 0.47 | – | – |
| QILELLVLEQFLTILPQEIQSRVQ [ZNF263] | 3.06 ± 0.47 | 3.43 ± 0.49 | – | – |
| QIMKEGKATASEAVDCKWYIRAPP [NETO1] | 3.24 ± 0.086 | 3.24 ± 0.2 | – | – |
| QIQKYTDCLQFYVNSTLKELRRLF [RTN1] | 2.73 ± 0.37 | 2.55 ± 0.31 | – | – |
| QKQLEQTLQQFNIKLRPPGAEKPS [ARFIP2] | 3.92 ± 0.098 | 4.07 ± 0.19 | – | – |
| QLDKNSEVYQEVQAMFDTLGIPKS [FAM98B] | 3.11 ± 0.69 | 3.66 ± 0.59 | – | – |
| QLSTPHAVGVLLLGLVGYYIFRVA [DHCR7] | 2.91 ± 0.44 | 2.94 ± 0.35 | – | – |
| QMLLNVEANSAKVQEDLEAEFQSL [FSD1] | 4.92 ± 0.21 | 4.96 ± 0.2 | – | – |
| QMPPVIVETARSHQRSSSESYTQS [PI4K2A] | 4.6 ± 0.28 | 4.72 ± 0.16 | – | – |
| QPAGNRRGQARRLAPNFRWAIPNR [BEX3] | 3.89 ± 0.14 | 3.75 ± 0.32 | – | – |
| QPPEESQPPQSQAQVPPAAPHHHH [PLK2] | 5.41 ± 0.11 | 5.43 ± 0.18 | – | – |
| QQAGLLVTGEKEEPSRSASEADSE [PPEF2] | 5.613 ± 0.041 | 5.56 ± 0.16 | – | – |
| QQENKVLKIELETYKLKCKALQEE [CCDC6] | 4.28 ± 0.12 | 4.27 ± 0.14 | – | – |
| QQIAMDPEEVKSLDSNGAGEKSEN [BCL2L13] | 5.6 ± 0.45 | 5.63 ± 0.3 | – | – |
| QQLLPPFPSLHQSLPQNQCYMATT [EHMT1] | 3.29 ± 0.13 | 3.16 ± 0.17 | – | – |
| QQNEDLRRMAESLRIPEGPIDQGP [FUT8] | 4.96 ± 0.23 | 4.94 ± 0.17 | – | – |
| QQSDLGQYVTFLRSFSDKQKISLL [ALG2] | 2.22 ± 0.24 | 2.29 ± 0.23 | – | – |
| QQVKKLEKALKKNVKLQELINHKK [CEP70] | 2.6 ± 0.28 | 2.67 ± 0.41 | – | – |
| QRLVEALEENELTSLAEDLLGLTD [TRADD] | 4.28 ± 0.14 | 4.28 ± 0.17 | – | – |

| Sequence | protein stability index [1] | protein stability index [2] | protein stability index (treatment: DMSO, c terminus: native) | protein stability index (treatment: MLN4924 1 uM, 8 h, c terminus: native) |
| --- | --- | --- | --- | --- |
| QRQAPGPARDYSQYYRTIEELQNK [KRT17] | 4.07 ± 0.15 | 4.12 ± 0.063 | – | – |
| QRQQLPVTFGNKQKVLGKALSLIR [BTBD1] | 2.81 ± 1 | 2.2 ± 0.41 | – | – |
| QSFGVASASSIKQILLEWCRSKTL [SMTNL2] | 2.41 ± 0.27 | 2.15 ± 0.39 | – | – |
| QSLDQEILLKVKTEIEEELKSLDK [BCL2L13] | 4.51 ± 0.42 | 4.93 ± 0.24 | – | – |
| QSSKRSSRSVEDDKEGHLVCRIGD [CLK3] | 5.3 ± 0.43 | 5.17 ± 0.25 | – | – |
| QVATSPDFDGKLKDIAGEFKEQLQ [ATL3] | 4.34 ± 0.35 | 4.32 ± 0.38 | – | – |
| QVEVDAQQCMLEILDTAGTEQFTA [RAP1B] | 4.54 ± 0.12 | 4.59 ± 0.16 | – | – |
| QVPEEMSRCRNSYTEQELKPLTLE [DLC1] | 4.48 ± 0.26 | 4.46 ± 0.29 | – | – |
| QYLMATFVHVYITSFIRGPNPSKV [CDS1] | 3.12 ± 0.17 | 3.2 ± 0.34 | – | – |
| QYPNPLPVLSGAELEKAHLALIDY [VPS39] | 3.55 ± 0.24 | 3.58 ± 0.31 | – | – |
| QYWPSRGTETHGLVQVTLLDTVEL [PTPRD] | 2.13 ± 0.17 | 2.23 ± 0.49 | – | – |
| RADEPQWSLYPSDSQVSEEVKTRH [CHGB] | 5.18 ± 0.068 | 5.18 ± 0.064 | – | – |
| RAGKMLMTLPLLRQTSTKAVQHFY [ESRRG] | 2.28 ± 0.31 | 2.16 ± 0.37 | – | – |
| RAQEREQIKALNNKFASFIDKVRF [KRT71] | 2.1 ± 0.11 | 2.2 ± 0.3 | – | – |
| RDRVGHKSIPMRNLRARPAKCLS [SERPINB5] | – | – | 2.34 ± 0.23 | 2.48 ± 0.24 |
| RDVAAWGRARATGGDLEEQQHAEG [DNAAF3] | 5.43 ± 0.24 | 5.3 ± 0.086 | – | – |
| REDSKEAEKSGEATDGARPQALPE [CHGA] | 5.64 ± 0.066 | 5.64 ± 0.17 | – | – |
| REFSFTLKDDIYIRYQSFNNQSDL [PRIM1] | 2.26 ± 0.084 | 2.22 ± 0.41 | – | – |
| REHVCRKDQRNPPSLGRVLPDPRE [RBMY1A1] | 4.69 ± 0.22 | 4.8 ± 0.24 | – | – |
| REISETEAKALLKERQKKDNHNLI [TFE3] | 5 ± 0.23 | 5.1 ± 0.16 | – | – |
| RELGIRQRDEQLRALQERLGQQQR [FBF1] | 4.39 ± 0.14 | 4.42 ± 0.14 | – | – |
| RELTGLKALYETELADARRALDDT [LMNB1] | 4.76 ± 0.31 | 4.77 ± 0.094 | – | – |
| RFELINIDDLEDDPVVNGERSGCA [TCF25] | 4.69 ± 0.26 | 4.68 ± 0.26 | – | – |

| Sequence | protein stability index [1] | protein stability index [2] | protein stability index (treatment: DMSO, c terminus: native) | protein stability index (treatment: MLN4924 1 uM, 8 h, c terminus: native) |
| --- | --- | --- | --- | --- |
| RFRSCNTEDCPTGSALTFREEQCA [ADAMTS4] | 3.75 ± 0.3 | 4.24 ± 0.27 | – | – |
| RFYLPLLIHQHEKVIYLDDDVIVQ [GLT8D2] | 2.32 ± 0.56 | 1.97 ± 0.25 | – | – |
| RGMDLSWESRTGDQYSYSSLVMGS [LCOR] | 2.65 ± 0.41 | 2.92 ± 0.28 | – | – |
| RGPRMCRFIRERDRAVNDYPSLYY [CDC25B] | 2.17 ± 0.27 | 2.12 ± 0.39 | – | – |
| RHLERKAWVANFERPRMNANSLLA [CRY1] | 2.49 ± 0.27 | 3.1 ± 0.15 | – | – |
| RHNALLSKRLLALTSSDLGCQPSR [TMEM192] | 2.97 ± 0.13 | 3.14 ± 0.38 | – | – |
| RHSFRKHLYLLRGLPGSGKTTLAR [N4BP2L1] | 2.5 ± 0.17 | 2.54 ± 0.37 | – | – |
| RKADFKAGKALVISGREVFEFRPE [ZC3H15] | 3.11 ± 0.25 | 3.38 ± 0.41 | – | – |
| RKIQFNFPYFRSDRDKRDFVSAGA [CLCN6] | 2.67 ± 0.16 | 2.76 ± 0.39 | – | – |
| RLGWQQQAELQELEERLQLQFEAE [MTUS2] | 4.55 ± 0.24 | 4.65 ± 0.11 | – | – |
| RLLSYRGERVAARGYWGDIATGPF [DNAAF3] | 2.18 ± 0.046 | 2.18 ± 0.34 | – | – |
| RLVGKTPIETLIRDMLLSGSSFNW [NR2F2] | 3.25 ± 0.84 | 1.87 ± 0.54 | – | – |
| RMTSSPSSIPRRDDFFRHESGEHF [RAD54B] | 3.67 ± 0.25 | 3.68 ± 0.14 | – | – |
| RNIHRHVILSEIKEAVAALPPDVT [TCF25] | 3.35 ± 0.084 | 3.62 ± 0.28 | – | – |
| RPENRSFYLALYKQMSFLEKRGCP [TCF25] | 2.12 ± 0.3 | 2.19 ± 0.34 | – | – |
| RQGIQLNKTPGAPESSALQPPPQS [WAS] | 4.74 ± 0.6 | 4.8 ± 0.094 | – | – |
| RQSGDRRQLPPPPTPANEERRGGL [WAS] | 5.42 ± 0.16 | 5.23 ± 0.068 | – | – |
| RRAGEGRRSPRPDHPGTPPHKTFR [WEE1] | 4.78 ± 0.41 | 4.83 ± 0.32 | – | – |
| RRHCPLPQATFWGLVTPRSWSCHT [SOAT2] | 2.46 ± 0.4 | 2.25 ± 0.17 | – | – |
| RRLKYFFMSPCDKFRAKGRKPCKL [MCOLN1] | 2.38 ± 0.38 | 2.71 ± 0.16 | – | – |
| RRMCFVDPVRQCAECALVSLKEAE [ZFYVE21] | 2.98 ± 0.25 | 3.01 ± 0.64 | – | – |
| RRPHELLPVGGRLPGPTRPVLGRR [HAGHL] | 4.67 ± 0.16 | 4.92 ± 0.4 | – | – |
| RSHFLWKEPATMSWLEENVHEVLQ [TCF25] | 2.43 ± 0.78 | 2.69 ± 0.39 | – | – |

| Sequence | protein stability index [1] | protein stability index [2] | protein stability index (treatment: DMSO, c terminus: native) | protein stability index (treatment: MLN4924 1 uM, 8 h, c terminus: native) |
| --- | --- | --- | --- | --- |
| RSKYDYLMILRRVVNESTVCLMGH [TENT5C] | 3.05 ± 0.86 | 2.52 ± 0.55 | – | – |
| RSLNEEHSKQYRCLSFQPECSMKL [VDR] | 3.25 ± 0.26 | 3.41 ± 0.31 | – | – |
| RSMVFKDVLLLGNDYIVPRHCPEL [HNF4A] | 2.29 ± 0.14 | 2.23 ± 0.32 | – | – |
| RSPLVSGDESSLLLNAASTVARPV [RHOBTB3] | 4.31 ± 0.17 | 4.25 ± 0.26 | – | – |
| RSVDVVVSSVFLLTLSIAFICCAQ [PHTF1] | 3.33 ± 0.59 | 3.35 ± 0.6 | – | – |
| RTIYHMFIALLILFILSTLVVDYI [SOAT1] | 2.84 ± 1.7 | 2.17 ± 0.28 | – | – |
| RTVDGSPMMKAAMYSVEITVEKDK [PALM] | 4.09 ± 0.18 | 4.1 ± 0.23 | – | – |
| RVRPTFQEITSETEDLCEKPDDEV [RIPK4] | 5.57 ± 0.17 | 5.49 ± 0.56 | – | – |
| RWREGTKDSHDPLPSWAELLRPKY [PBXIP1] | 2.5 ± 0.21 | 2.96 ± 0.3 | – | – |
| RWSSDLNKHLTTHQGIKPYKCSWC [ZNF75A] | 2.55 ± 0.45 | 2.73 ± 0.49 | – | – |
| RYVYRFVCDLQSLLGYTPEELHAM [ETS1] | 2.69 ± 0.65 | 2.5 ± 0.5 | – | – |
| SAQYSQQLQAARNEYLLNLVATNA [FCHSD1] | 2.71 ± 0.11 | 2.77 ± 0.18 | – | – |
| SDGRTFLSRCEFQRAKCKDPQLEI [SMOC2] | 2.95 ± 0.42 | 2.93 ± 0.33 | – | – |
| SDPARYEFLWGPRAHAEIRKMSLL [MAGEA10] | 2.46 ± 0.3 | 2.49 ± 0.53 | – | – |
| SDPQLIVQLRFCGRQPCGRFLRAY [TRADD] | 2.35 ± 0.69 | 2.11 ± 0.27 | – | – |
| SDYFCAMFTSELSEKGKPYVDIQG [KLHL12] | 2.53 ± 0.14 | 2.91 ± 0.27 | – | – |
| SDYISEFRFAPNHTKELEDKVIEL [EPB41L3] | 2.83 ± 0.5 | 3.44 ± 0.49 | – | – |
| SEGLHLAGTAGHPPSGSQPLTSTQ [FBF1] | 5.07 ± 0.17 | 4.96 ± 0.23 | – | – |
| SEIIQITTGSKELDKLLQGGIETG [RAD51] | 4.11 ± 0.34 | 4.3 ± 0.26 | – | – |
| SELPFVPNYLANPAFPFIYTPTAE [ANKRD40] | 2.8 ± 0.19 | 2.95 ± 0.2 | – | – |
